From article doi:10.1101/209809 (bioRxiv, 2017) come the findings set out here.

For data set [1], the target named is T1, CPSF-160;WDR33 (1-572);CPSF-30 (human;human;human, UniProt Q10570;Q9C0J8;O95639-2 1-1443;1-572;1-244, ||). The data set can be described thus: cryo-EM structure.
For data set [2], the target named is T2, N-terminal region of human WDR33 (residues 1-572) (human, UniProt Q9C0J8 1-572).
T2 sequence (looked up): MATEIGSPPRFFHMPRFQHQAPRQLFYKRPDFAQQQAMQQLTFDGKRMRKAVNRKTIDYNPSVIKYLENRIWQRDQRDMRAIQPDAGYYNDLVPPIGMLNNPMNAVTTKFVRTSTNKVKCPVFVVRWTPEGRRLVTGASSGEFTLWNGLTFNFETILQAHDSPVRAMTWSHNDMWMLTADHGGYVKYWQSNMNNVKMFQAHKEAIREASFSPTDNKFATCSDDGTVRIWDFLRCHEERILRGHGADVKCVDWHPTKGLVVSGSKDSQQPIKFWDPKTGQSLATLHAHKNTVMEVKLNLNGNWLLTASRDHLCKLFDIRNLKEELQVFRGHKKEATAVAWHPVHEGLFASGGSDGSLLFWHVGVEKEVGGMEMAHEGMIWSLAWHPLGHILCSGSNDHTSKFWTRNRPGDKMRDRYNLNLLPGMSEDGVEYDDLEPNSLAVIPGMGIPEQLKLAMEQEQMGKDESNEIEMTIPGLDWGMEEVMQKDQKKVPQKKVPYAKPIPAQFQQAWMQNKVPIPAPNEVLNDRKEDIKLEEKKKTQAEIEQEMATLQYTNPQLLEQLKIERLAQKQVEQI
The data set can be described thus: cryo-EM structure.

Data set [3] has as its target CPSF-160–WDR33 binary complex (human, UniProt Q10570 1-1443; Q9C0J8 1-572). Put plainly: cryo-EM structure.
For data set [4], the target named is T1, CPSF-160;WDR33 (1-572);CPSF-30. Put plainly: EMSA. On the technique in general: Mobility shift assays separate free from complexed probe on a gel.
Data set [5] concerns the target CPSF-160;WDR33 (1-572);MBP-CPSF-30(33-170) (human;human;human, UniProt Q10570;Q9C0J8;O95639-2 1-1443;1-572;33-170, ||). Put plainly: EMSA.

T1 sequence (Q10570 whole entry, the tested form may be a part, one chain of several): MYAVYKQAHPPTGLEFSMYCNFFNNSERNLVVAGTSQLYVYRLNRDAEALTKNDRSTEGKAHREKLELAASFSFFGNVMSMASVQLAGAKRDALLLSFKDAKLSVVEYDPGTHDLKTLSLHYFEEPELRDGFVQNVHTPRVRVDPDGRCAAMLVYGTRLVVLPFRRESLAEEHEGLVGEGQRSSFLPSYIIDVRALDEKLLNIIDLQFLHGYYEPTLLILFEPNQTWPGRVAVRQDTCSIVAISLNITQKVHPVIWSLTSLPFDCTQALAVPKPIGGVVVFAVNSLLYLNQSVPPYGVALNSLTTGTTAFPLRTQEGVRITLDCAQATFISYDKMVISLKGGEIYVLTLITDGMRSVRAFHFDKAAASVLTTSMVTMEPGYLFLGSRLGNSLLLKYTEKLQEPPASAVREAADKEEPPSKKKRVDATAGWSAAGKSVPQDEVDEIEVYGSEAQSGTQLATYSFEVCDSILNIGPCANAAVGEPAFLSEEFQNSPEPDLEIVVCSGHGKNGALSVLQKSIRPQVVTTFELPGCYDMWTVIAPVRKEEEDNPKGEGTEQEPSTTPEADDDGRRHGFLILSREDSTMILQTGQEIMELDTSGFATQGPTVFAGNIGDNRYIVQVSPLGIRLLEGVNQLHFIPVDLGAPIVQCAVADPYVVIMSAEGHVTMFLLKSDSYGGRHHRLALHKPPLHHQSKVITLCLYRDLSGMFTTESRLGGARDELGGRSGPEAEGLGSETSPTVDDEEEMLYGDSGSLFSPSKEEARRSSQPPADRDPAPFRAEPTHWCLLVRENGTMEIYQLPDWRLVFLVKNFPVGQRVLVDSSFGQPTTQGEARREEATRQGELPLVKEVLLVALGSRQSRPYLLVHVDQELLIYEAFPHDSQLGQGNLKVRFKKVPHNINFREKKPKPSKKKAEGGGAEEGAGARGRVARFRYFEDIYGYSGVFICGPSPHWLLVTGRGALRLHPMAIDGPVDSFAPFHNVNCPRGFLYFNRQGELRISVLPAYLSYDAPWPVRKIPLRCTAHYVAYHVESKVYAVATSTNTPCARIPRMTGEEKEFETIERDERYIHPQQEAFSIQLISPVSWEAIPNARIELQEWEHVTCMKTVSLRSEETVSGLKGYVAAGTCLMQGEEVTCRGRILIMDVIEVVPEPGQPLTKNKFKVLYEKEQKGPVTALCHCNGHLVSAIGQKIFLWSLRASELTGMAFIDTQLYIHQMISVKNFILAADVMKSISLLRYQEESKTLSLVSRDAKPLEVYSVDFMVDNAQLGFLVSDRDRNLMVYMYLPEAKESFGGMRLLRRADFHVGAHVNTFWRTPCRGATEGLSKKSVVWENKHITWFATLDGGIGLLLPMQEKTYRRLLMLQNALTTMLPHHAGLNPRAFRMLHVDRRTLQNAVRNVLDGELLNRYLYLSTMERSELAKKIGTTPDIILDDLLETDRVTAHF
Sequence of CPSF-160;WDR33 (1-572);MBP-CPSF-30(33-170) (Q10570 whole entry, chain 1 of 2, one chain of several): as the sequence (Q10570 whole entry, the tested form may be a part, one chain of several) above
Sequence of CPSF-160–WDR33 binary complex (Q10570 whole entry, one chain of several): as the sequence (Q10570 whole entry, the tested form may be a part, one chain of several) above

AACCUCCAAUAAACAAC (ssRNA) [17-mer PAS RNA, unlabeled (EM)]: the binding result in data set [1] is “binds”.

B1: full-length human CPSF-30 (isoform 2), MBP removed by TEV protease (natural protein, UniProt O95639-2 1-244, looked up)
chain: MQEIIASVDHIKFDLEIAVEQQLGAQPLPFPGMDKSGAAVCEFFLKAACGKGGMCPFRHISGEKTVVCKHWLRGLCKKGDQCEFLHEYDMTKMPECYFYSKFGECSNKECPFLHIDPESKIKDCPWYDRGFCKHGPLCRHRHTRRVICVNYLVGFCPEGPSCKFMHPRFELPMGTTEQPPLPQQTQPPAKQRTPQVIGVMQSQNSSAGNRGPRPLEQVTCYKCGEKGHYANRCTKGHLAFLSGQ
As for B1, the binding result in data set [2] and in data set [3] was “binds” throughout.
With AACCUCCAAUAAACAAC (ssRNA) [17-mer PAS RNA (AAUAAA)], the binding result in data set [4] and in data set [5] was “binds” each time.
